Test results published in patent publication US20240000892A1.

Molecular target: IL-2 receptor (CD25, CD122 and CD132) on Kupffer cells of C57BL/6 mice (mouse (C57BL/6)) (UniProt P01590)
Test: cell-based or functional assay

Chain of UniProt P01590 (P01590 22-268, chain 1 of 3): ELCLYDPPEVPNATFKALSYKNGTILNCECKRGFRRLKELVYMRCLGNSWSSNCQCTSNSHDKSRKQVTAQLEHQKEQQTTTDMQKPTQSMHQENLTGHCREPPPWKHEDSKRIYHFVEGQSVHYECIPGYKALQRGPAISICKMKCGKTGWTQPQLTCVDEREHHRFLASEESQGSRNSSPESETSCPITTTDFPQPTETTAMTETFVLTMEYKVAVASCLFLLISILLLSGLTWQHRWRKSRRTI
Chain of UniProt P01590 (P16297 27-539, chain 2 of 3, further chain): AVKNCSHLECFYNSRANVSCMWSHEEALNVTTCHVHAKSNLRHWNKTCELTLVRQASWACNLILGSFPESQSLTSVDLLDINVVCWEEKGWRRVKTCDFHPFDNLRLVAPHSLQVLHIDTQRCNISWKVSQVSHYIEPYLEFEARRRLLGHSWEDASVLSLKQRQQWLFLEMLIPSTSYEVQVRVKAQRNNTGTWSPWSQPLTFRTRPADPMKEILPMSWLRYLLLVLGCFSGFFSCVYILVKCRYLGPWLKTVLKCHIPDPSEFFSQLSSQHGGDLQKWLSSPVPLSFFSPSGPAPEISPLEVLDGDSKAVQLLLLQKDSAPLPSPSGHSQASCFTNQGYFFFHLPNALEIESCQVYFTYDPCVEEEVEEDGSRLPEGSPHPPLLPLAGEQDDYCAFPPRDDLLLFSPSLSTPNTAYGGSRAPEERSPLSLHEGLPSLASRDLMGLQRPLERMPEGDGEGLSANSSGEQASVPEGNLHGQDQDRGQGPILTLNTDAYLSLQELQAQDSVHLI
Chain of UniProt P01590 (P34902 23-369, chain 3 of 3, further chain): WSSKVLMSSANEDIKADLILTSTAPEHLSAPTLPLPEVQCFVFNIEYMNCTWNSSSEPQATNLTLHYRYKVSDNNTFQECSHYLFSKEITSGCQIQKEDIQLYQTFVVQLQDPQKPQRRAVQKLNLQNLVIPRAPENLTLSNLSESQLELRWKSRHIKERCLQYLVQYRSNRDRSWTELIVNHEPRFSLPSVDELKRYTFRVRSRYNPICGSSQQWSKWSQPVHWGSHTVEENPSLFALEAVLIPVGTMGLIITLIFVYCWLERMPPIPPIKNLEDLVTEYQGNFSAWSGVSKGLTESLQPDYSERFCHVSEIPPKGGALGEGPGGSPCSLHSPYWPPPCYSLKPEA

## recombinant IL-2 (402 ML/CF, R&D Systems) (from UniProt P04351 21-169) (ligand)
  IL-2-dependent fold change in STAT5 phosphorylation in KCs, compared with CD4+ FoxP3+ splenic T regulatory cells: 10 fold lower
